How the values were obtained:
[1] = biological target: tissue factor (TF) antigen (UniProt P13726); assay: SPR (ProteOn), Fab captured on anti-penta-His, TF analyte, 1:1 fit
[2] = biological target: tissue factor (TF) antigen (UniProt P13726); assay: SPR KD against wild-type D3H44 Fab (reference KD 0.157 nM)
[3] = biological target: tissue factor (TF) antigen (UniProt P13726); assay: SPR, Fab captured on anti-penta His, TF injected

tissue factor (TF) antigen, sequence (P13726 33-251 limits assumed): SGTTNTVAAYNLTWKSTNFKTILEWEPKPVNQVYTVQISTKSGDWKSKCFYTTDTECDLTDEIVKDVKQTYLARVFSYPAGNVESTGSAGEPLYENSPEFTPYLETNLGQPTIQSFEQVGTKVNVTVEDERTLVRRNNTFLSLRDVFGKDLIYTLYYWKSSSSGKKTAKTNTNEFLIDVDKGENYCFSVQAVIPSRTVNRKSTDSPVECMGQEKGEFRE

Substance	Kd [1]	Change in KD with respect to wild type (-(log(KD design) - log(KD wt))) [2]	Change in KD with respect to wild type (-(log(KD design) - log(KD wt))) [3]	Kd [3]
D3H44 Fab heterodimer, H: Q179R, L: Q124E_T178E_T180E (H1L1 Fab of LCCA set 9812)	0.16 nM	-0.01	–	–
D3H44 Fab heterodimer, H: L143E_K145T_Q179E, L: Q124R_T178K (H1L1 Fab of LCCA set 9660)	0.19 nM	-0.08	–	–
D3H44 Fab heterodimer, H: A139C_L143E_K145T_Q179E, L: F116C_Q124R_T178R (H1L1 Fab of LCCA set 9049)	0.16 nM	-0.01	–	–
D3H44 Fab heterodimer, H: L124A_L143F_Q179K, L: Q124E_V133W_S176T_T178L_T180E (H1L1 Fab of LCCA set 9096)	0.17 nM	-0.04	–	–
D3H44 Fab heterodimer, H: L143K, L: Q124E_V133D (H1L1 Fab of LCCA set 9731)	0.28 nM	-0.26	–	–
D3H44 Fab heterodimer, H: L124W_L143F_K145T_Q179E, L: S131K_V133A_S176T_T178L (H1L1 Fab of LCCA sets 9571 and 9572)	0.26 nM	-0.21	–	–
D3H44 Fab heterodimer, H: Q179K, L: Q124E_T178E (H1L1 Fab of LCCA set 9784)	0.14 nM	0.05	–	–
D3H44 Fab heterodimer, H: L124A_Q179K, L: Q124E_V133W_S176T_T178L_T180E (H1L1 Fab of LCCA set 9099)	0.19 nM	-0.09	–	–
D3H44 Fab heterodimer, H: L143E_K145T_Q179D, L: Q124R_T178R (H1L1 Fab of LCCA set 9632)	0.14 nM	0.04	–	–
D3H44 Fab heterodimer, H: Q179K, L: Q124E_Q160E_T180E (H1L1 Fab of LCCA set 9759)	0.32 nM	-0.31	–	–
D3H44 Fab heterodimer, H: S186R, L: Q124E_Q160E_T178E (H1L1 Fab of LCCA set 9868)	0.14 nM	0.06	–	–
D3H44 Fab heterodimer H L124R_S186K / L Q124E_V133G_S176D_T178D_T180E (H1L1 Fab of LCCA Set # 9461)	–	–	-0.23	0.26 nM
D3H44 Fab heterodimer H L124E_L143D_K145M / L Q124K_V133G_S176R_T178K (H1L1 Fab of LCCA Set # 9178, 9179)	–	–	-0.15	0.22 nM

More lines, in order of falling Kd [1], values ahead:

Kd [1]	Change in KD with respect to wild type (-(log(KD design) - log(KD wt))) [2]	Change in KD with respect to wild type (-(log(KD design) - log(KD wt))) [3]	Kd [3]	Substance
0.14 nM	0.05	–	–	D3H44 Fab heterodimer, H: L143E_K145T_Q179E, L: Q124K_T178R (H1L1 Fab of LCCA set 9648)
0.13 nM	0.09	–	–	D3H44 Fab heterodimer, H: S186K, L: Q124E_Q160E_T180E (H1L1 Fab of LCCA set 9838)
0.13 nM	0.1	–	–	D3H44 Fab heterodimer, H: Q179K, L: Q124E_T178E_T180E (H1L1 Fab of LCCA set 9786)
0.11 nM	0.16	–	–	D3H44 Fab heterodimer, H: Q179R, L: Q124E_Q160E_T178E (H1L1 Fab of LCCA set 9802)
0.06 nM	0.41	–	–	D3H44 Fab heterodimer, H: S186K, L: Q124E_Q160E_T178E (H1L1 Fab of LCCA set 9830)
0.06 nM	0.46	–	–	D3H44 Fab heterodimer, H: S186K, L: Q124E_T180E (H1L1 Fab of LCCA sets 9853 and 9858)

From patent US11306156
